# Laboratory results reported in the supplement of paper PMC7125110.
# ± gives the standard error. Fewer inactive variants are shown than the library holds.
# B1: glmS ribozyme (parent)
# chain: AUAAAAGCGCCAGAACUACAGAAAUGUAGUUGACGAGGAGGAGGUUUAUCGAAUUUUCGGCGGAUGCCUCCAAA
# How the values were obtained:
# Conditions in all cases: with glucosamine-6-phosphate
# glucosamine-6-phosphate [1] = variants of: B1; experiment: self-cleavage kobs at 160 uM GlcN6P; higher = faster cleavage; RNA array
# Summary of the method: (§1)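 E. coli RNA polymerase transcribed barcoded ribozyme variants in situ on sequenced MiSeq chips, which were tracked via a hybridised Cy3 probe at 37 °C. Tiles were imaged over ~14 h after glucosamine-6-phosphate (40 μM to 10 mM) in HEPES/KCl/Mg(OAc)2 buffer was flowed in. Normalised per-tile medians were fit to one- or two-exponential decays for kobs, and kcat and KM came from weighted Michaelis–Menten fits.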
# glucosamine-6-phosphate [2] = variants of: B1; experiment: self-cleavage kobs at 640 uM GlcN6P; higher = faster cleavage; RNA array
# Summary of the method: as §1
# glucosamine-6-phosphate [3] = variants of: B1; experiment: self-cleavage kobs at 2500 uM GlcN6P; higher = faster cleavage; RNA array
# Summary of the method: as §1
# glucosamine-6-phosphate [4] = variants of: B1; experiment: self-cleavage kobs at 10000 uM GlcN6P; higher = faster cleavage; RNA array
# Summary of the method: as §1
Variant,self-cleavage kobs at 160 uM GlcN6P (glucosamine-6-phosphate [1]) [s⁻¹],self-cleavage kobs at 640 uM GlcN6P (glucosamine-6-phosphate [2]) [s⁻¹],self-cleavage kobs at 2500 uM GlcN6P (glucosamine-6-phosphate [3]) [s⁻¹],self-cleavage kobs at 10000 uM GlcN6P (glucosamine-6-phosphate [4]) [s⁻¹]
G13C G40U G59C,< 1e-05,< 1e-05,< 1e-05,
C10A U30A,< 1e-05,< 1e-05,< 1e-05,< 1e-05
C8G G63A C70G,< 1e-05,< 1e-05,< 1e-05,
G9U U31A U65G,< 1e-05,< 1e-05,< 1e-05,
C11G G63U,< 1e-05,,< 1e-05,< 1e-05
G13U G29A A52C,< 1e-05,< 1e-05,< 1e-05,
C10A C34A G37A U46C C67G,< 1e-05,,,
C10A A12G C16A U47C G63A C67G,< 1e-05,< 1e-05,,
C8U A33C C71G,< 1e-05,,,
C8G A12U G63U,< 1e-05,< 1e-05,< 1e-05,
C11U C61A C67G,7.27e-05 ± 2.3e-05,8.2e-05 ± 3.6e-05,7.14e-05 ± 3.3e-05,
A12G C34A C50A G60C,< 1e-05,,< 1e-05,
A12G A52U G66U,< 1e-05,< 1e-05,,
C8U G9C U31G A33C,< 1e-05,< 1e-05,< 1e-05,
C11U G41C A52U,< 1e-05,< 1e-05,< 1e-05,
C10A G13C C16U G51C,< 1e-05,,,
C8G C11U A48U U57G C71U,< 1e-05,,,
A12U A33C A39G C50G A52G,< 1e-05,< 1e-05,,
C10U G43C U47C A52C U65C G66A C70G,< 1e-05,< 1e-05,,
C8U G35U G62C,< 1e-05,< 1e-05,< 1e-05,
C11G A14U G35U C70G,0.000125 ± 4.5e-05,0.000575 ± 0.0002,0.00022 ± 8.2e-05,0.000257 ± 5.4e-05
G9A G43C G44C G62U,< 1e-05,< 1e-05,< 1e-05,
C10A G35C C67U,< 1e-05,,< 1e-05,
G9A C50A,< 1e-05,< 1e-05,< 1e-05,< 1e-05
C11U G29U A39C U54A,< 1e-05,,,

Variant,self-cleavage kobs at 160 uM GlcN6P (glucosamine-6-phosphate [1]) [s⁻¹],self-cleavage kobs at 640 uM GlcN6P (glucosamine-6-phosphate [2]) [s⁻¹],self-cleavage kobs at 2500 uM GlcN6P (glucosamine-6-phosphate [3]) [s⁻¹],self-cleavage kobs at 10000 uM GlcN6P (glucosamine-6-phosphate [4]) [s⁻¹]
C11U G32C A42G G59U,< 1e-05,,< 1e-05,
G9U G29C,< 1e-05,< 1e-05,< 1e-05,< 1e-05
C10A A15G C34A G44A C67A C68A,< 1e-05,< 1e-05,< 1e-05,
C11G U31A U47G,< 1e-05,,,
C10U A39U C67G,< 1e-05,< 1e-05,,
C10G G38U G41U U49C C50U C70A,< 1e-05,,,< 1e-05
C8A G59A,< 1e-05,< 1e-05,< 1e-05,< 1e-05
G9A C58A,< 1e-05,< 1e-05,< 1e-05,
G9U C10U C16U,< 1e-05,,< 1e-05,
C8G G38A,< 1e-05,< 1e-05,< 1e-05,< 1e-05
G13C C58G,< 1e-05,,,
C11U A42G U54A,3.87e-05 ± 1.6e-05,0.000886 ± 0.00027,,
C8G C70U,< 1e-05,< 1e-05,< 1e-05,< 1e-05
A12G A36U C50G A64U C68U,6.37e-05 ± 2.6e-05,,,
G9A G32A G43C U56C C68U,< 1e-05,< 1e-05,< 1e-05,
C11U U46G C50G,5.55e-05 ± 1.9e-05,6.4e-05 ± 1.8e-05,,
C8U C50G G63U,0.000108 ± 2.8e-05,,5.35e-05 ± 2.6e-05,
G13U C34G,< 1e-05,< 1e-05,< 1e-05,< 1e-05
G9U C11U C34A G43U C61A C67G,< 1e-05,,,
C10A U56C,< 1e-05,< 1e-05,< 1e-05,
C8G A39U U69A,< 1e-05,,,
C8U A33G G37U G43C U54A U56C C67U,< 1e-05,< 1e-05,< 1e-05,
C10A A14G U69G,0.000148 ± 5.1e-05,0.000195 ± 7.6e-05,6.53e-05 ± 2.3e-05,
A12C U56A C67A U69G,8.14e-05 ± 2.1e-05,0.00447 ± 0.0018,0.000144 ± 4.7e-05,
C10U U46C C70U,< 1e-05,,,
